Results as given in WO2012132067A1 (dated 2012).
Substitutions are numbered along the chain they refer to. In names and notes the source's numbering stands.

What was measured:
[1] = biological target: T1, mouse FcγRI (mouse, UniProt P26151 25-297); assay: SPR (Biacore), antibody held on immobilised mouse FcRn, FcγR injected, pH 7.4, 25 C
T1 sequence (looked up): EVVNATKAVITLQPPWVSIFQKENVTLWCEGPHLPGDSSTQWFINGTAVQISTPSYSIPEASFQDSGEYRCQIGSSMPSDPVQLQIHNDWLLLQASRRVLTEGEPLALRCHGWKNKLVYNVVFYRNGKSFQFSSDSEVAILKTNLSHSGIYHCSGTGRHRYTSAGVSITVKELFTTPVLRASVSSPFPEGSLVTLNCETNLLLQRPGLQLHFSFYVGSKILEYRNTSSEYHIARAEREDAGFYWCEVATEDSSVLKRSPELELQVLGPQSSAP

[2] = biological target: T2, mouse FcγRIIb (mouse, UniProt P08101 30-210, limits assumed); assay: as above
T2 sequence (looked up): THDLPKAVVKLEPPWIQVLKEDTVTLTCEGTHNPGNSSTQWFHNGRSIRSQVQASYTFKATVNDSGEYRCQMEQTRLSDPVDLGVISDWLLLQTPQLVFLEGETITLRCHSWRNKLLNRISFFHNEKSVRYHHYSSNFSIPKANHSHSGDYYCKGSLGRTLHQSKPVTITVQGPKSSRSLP

[3] = biological target: T3, mouse FcγRIII (mouse, UniProt P08508 31-215); assay: as above
T3 sequence (looked up): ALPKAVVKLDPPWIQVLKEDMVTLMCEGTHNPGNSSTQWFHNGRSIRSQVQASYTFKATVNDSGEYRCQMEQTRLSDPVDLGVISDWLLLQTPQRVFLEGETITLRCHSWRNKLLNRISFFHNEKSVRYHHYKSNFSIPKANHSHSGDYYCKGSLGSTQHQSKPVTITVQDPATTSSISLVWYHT

[4] = biological target: T4, soluble human IL-6 receptor (human, UniProt P08887 20-357); assay: summary of the Biacore result of Reference Example 7, told in Reference Example 12
T4 construct: The stated range 1-357 is that of the expressed construct; also called hsIL-6R
T4 sequence: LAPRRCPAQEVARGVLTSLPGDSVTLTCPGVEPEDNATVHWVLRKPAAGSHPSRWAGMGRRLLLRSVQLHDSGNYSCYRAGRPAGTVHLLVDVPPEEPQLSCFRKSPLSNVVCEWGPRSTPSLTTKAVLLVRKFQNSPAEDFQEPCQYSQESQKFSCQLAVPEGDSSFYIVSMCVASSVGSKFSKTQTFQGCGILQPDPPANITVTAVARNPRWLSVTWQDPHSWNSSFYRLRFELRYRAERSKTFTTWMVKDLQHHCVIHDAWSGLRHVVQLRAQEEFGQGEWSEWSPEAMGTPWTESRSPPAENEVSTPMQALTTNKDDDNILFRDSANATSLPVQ

[5] = biological target: T5, human FcRn (human, UniProt P55899 24-290; P61769 21-119, limits assumed); assay: SPR (Biacore), antibody held on immobilised human FcRn, FcγR injected, pH 7.4, 25 C
T5 construct: also called hFcRn

[6] = biological target: T6, human FcγRIa (human, UniProt P12314 16-292, limits assumed); assay: as above
T6 construct: also called hFcgRI; hFcγRIa

[7] = biological target: T7, human FcγRIIb (human, UniProt P31994 43-217, limits assumed); assay: as above
T7 construct: also called hFcgRIIb
T7 sequence: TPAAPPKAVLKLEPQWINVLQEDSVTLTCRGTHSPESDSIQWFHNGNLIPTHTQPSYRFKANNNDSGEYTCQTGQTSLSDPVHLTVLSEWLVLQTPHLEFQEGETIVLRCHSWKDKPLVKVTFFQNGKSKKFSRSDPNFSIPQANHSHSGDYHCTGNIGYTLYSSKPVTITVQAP

[8] = biological target: T1, mouse FcγRI; assay: as above
[9] = biological target: T2, mouse FcγRIIb; assay: as above
[10] = biological target: T3, mouse FcγRIII; assay: as above
[11] = biological target: T5, human FcRn; assay: Biacore, human FcRn, pH 7.0 (Table 20 not given)
[12] = biological target: T7, human FcγRIIb; assay: Biacore T100, Protein L capture, FcγR injected, pH 7.4, 25 C (Table 19 not given)
[13] = biological target: T5, human FcRn; assay: Biacore, Protein L capture, human FcRn injected, pH 7.0 (Table 6 not given)
[14] = biological target: T8, human FcγRIIa(H) (human, UniProt P12318 36-217); assay: Biacore T100, Protein A capture, 25 C; against IgG1 (IL6R-G1d)
T8 construct: also called hFcgRIIa(H); FcγRIIa H type
T8 sequence: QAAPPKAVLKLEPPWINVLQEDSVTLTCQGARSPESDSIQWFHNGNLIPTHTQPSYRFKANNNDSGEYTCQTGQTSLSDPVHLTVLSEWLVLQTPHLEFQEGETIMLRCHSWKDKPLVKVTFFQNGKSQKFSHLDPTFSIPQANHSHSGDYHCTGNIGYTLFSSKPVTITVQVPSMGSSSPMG

[15] = biological target: T7, human FcγRIIb; assay: as above
[16] = biological target: T9, human FcγRIIa(R) (human, UniProt P12318 36-217); assay: Biacore T100, Protein A capture, 25 C; against IgG1 (IL6R-G1d); the Japanese text says improved 522-fold
T9 construct: also called hFcgRIIa(R); FcγRIIa R type
T9 chain: T8 sequence with H133R

T5 sequence (P55899 24-290 limits assumed, chain 1 of 2): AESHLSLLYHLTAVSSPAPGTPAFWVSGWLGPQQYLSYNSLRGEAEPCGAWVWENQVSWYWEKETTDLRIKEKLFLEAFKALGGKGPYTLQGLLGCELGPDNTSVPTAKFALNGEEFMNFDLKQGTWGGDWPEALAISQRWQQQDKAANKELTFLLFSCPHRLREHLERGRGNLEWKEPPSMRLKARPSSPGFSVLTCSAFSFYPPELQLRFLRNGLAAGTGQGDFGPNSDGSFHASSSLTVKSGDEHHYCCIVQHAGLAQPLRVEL
T5 sequence (P61769 21-119 limits assumed, chain 2 of 2): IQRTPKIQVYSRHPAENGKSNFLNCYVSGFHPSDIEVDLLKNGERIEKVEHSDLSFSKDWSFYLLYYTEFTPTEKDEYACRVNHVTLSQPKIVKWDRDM
T6 sequence (P12314 16-292 limits assumed): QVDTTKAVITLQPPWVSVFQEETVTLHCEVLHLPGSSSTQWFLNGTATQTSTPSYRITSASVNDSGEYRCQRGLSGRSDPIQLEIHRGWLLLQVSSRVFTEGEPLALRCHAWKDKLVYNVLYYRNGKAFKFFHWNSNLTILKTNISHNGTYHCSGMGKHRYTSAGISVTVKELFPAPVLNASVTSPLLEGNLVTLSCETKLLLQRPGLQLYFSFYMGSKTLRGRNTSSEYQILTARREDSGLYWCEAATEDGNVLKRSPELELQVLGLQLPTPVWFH

B1: mPM1-mIgG1-mF3 (antibody)
heavy: DVQLQESGPVLVKPSQSLSLTCTVTGYSITSDHAWSWIRQFPGNKLEWMGYISYSGITTYNPSLKSRISITRDTSKNQFFLQLNSVTTGDTSTYYCARSLARTTAMDYWGQGTSVTVSSAKTTPPSVYPLAPGSAAQTNSMVTLGCLVKGYFPEPVTVTWNSGSLSSGVHTFPAVLQSDLYTLSSSVTVPSSTWPSETVTCNVAHPASSTKVDKKIVPRDCGCKPCICTVPEVSSVFIFPPKPKDVLYITLEPKVTCVVVDISKDDPEVQFSWFVDDVEVHTAQTQPREEQFNSTFRSVSELPIMHQDWLNGKEFKCRVNSAAFPAPIEKTISKTKGRPKAPQVYTIPPPKEQMAKDKVSLTCMITDFFPEDITVEWQWNGQPAENYKNTQPIMDTDGSYFVYSKLNVQKSNWEAGNTFTCSVLHEGLKFHHTEKSLSHSPGK
light: DIQMTQTTSSLSASLGDRVTISCRASQDISSYLNWYQQKPDGTIKLLIYYTSRLHSGVPSRFSGSGSGTDYSLTINNLEQEDIATYFCQQGNTLPYTFGGGTKLEIKRADAAPTVSIFPPSSEQLTSGGASVVCFLNNFYPKDINVKWKIDGSERQNGVLNSWTDQDSKDSTYSMSSTLTLTKDEYERHNSYTCEATHKTSTSPIVKSFNRNEC
notes: Mouse IgG1 anti-human IL-6R antibody of mPM1H-mIgG1-mF3 and mPM1L-mk1; copies: 2 + 2
binding result [1]: no binding
binding result [2]: binds
binding result [3]: binds

B2: 6RL#9-IgG1 (antibody, V domains shown, not shown: a dimerising Fc or GST)
VH: QVQLVQSGAEVKKPGASVKVSCKASGYTFTSYYMHWVRQAPGQGLEWMGIINPSGGSTSYAQKFQGRVTMTRDTSTSTVYMELSSLRSEDTAVYYCARDDPGGGEYYFDYWGQGTLVTVSS
VL: QSVLTQPPSVSGAPGQRVTISCTGSRSNMGAGYDVHWYQLLPGAAPKLLISHNTHRPSGVPDRFSGSKSGASASLAITGLQAEDEADYYCQSHDSSLSAVVFGGGTKLTVLS
notes: Ca-dependent anti-human IL-6 receptor antibody from a naive human phage library; also called 6RL#9 antibody
Ca-dependence of binding (fold) [4]: ≥ 100 fold

B3: Fv4-IgG1-F157 (antibody)
heavy: QVQLQESGPGLVKPSETLSLTCAVSGHSISHDHAWSWVRQPPGEGLEWIGFISYSGITNYNPSLQGRVTISRDNSKNTLYLQMNSLRAEDTAVYYCARSLARTTAMDYWGEGTLVTVSSASTKGPSVFPLAPSSKSTSGGTAALGCLVKDYFPEPVTVSWNSGALTSGVHTFPAVLQSSGLYSLSSVVTVPSSSLGTQTYICNVNHKPSNTKVDKKVEPKSCDKTHTCPPCPAPELLGGPSVFLFPPKPKDTLMISRTAEVTCVVVDVSHEDPEVKFNWYVDGVEVHNAKTKPREEQYNSTYRVVSVLTPLHQDWLNGKEYKCKVSNKALPAPIEKTISKAKGQPREPQVYTLPPSRDELTKNQVSLTCLVKGFYPSDIAVEWESNGQPENNYKTTPPVLDSDGSFFLYSKLTVDKSRWQQGNVFSCSVLHEALHYHYTQKSLSLSP
light: DIQMTQSPSSLSASVGDSVTITCQASTDISSHLNWYQQKPGKAPELLIYYGSHLLSGVPSRFSGSGSGTDFTFTISSLEAEDAATYYCGQGNRLPYTFGQGTKVEIERTVAAPSVFIFPPSDEQLKSGTASVVCLLNNFYPREAKVQWKVDNALQSGNSQESVTEQDSKDSTYSLSSTLTLSKADYEKHKVYACEVTHQGLSSPVTKSFNRGEC
notes: VH3-IgG1-F157 with VL3-CK; copies: 2 + 2
binding result [5]: binds
binding result [6]: binds
binding result [7]: binds
binding result [8]: binds
binding result [9]: binds
binding result [10]: binds

B4: VH3/L(WT)-IgG1-F652 (antibody)
heavy: B3 heavy with P240D, M254Y, A259P, P310V, L430M
light: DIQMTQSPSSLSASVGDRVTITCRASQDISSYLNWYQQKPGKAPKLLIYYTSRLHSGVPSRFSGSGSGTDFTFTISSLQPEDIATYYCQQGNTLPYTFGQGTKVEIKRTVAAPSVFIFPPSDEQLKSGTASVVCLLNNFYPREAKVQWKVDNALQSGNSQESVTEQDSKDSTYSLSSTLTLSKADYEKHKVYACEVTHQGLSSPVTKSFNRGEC
notes: VH3-IgG1-F11 with P238D (EU); copies: 2 + 2
binding result [11]: binds
binding result [12]: binds

B5: VH3/L(WT)-IgG1-F21 (antibody)
heavy: B3 heavy with M254Y, A259P, L430M
light: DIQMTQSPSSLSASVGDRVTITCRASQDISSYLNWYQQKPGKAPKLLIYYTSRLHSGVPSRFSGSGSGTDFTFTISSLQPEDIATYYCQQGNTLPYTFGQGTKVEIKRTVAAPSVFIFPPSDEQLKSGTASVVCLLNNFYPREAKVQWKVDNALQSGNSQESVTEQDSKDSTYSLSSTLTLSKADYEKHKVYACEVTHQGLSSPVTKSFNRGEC
notes: Measured with light chain L(WT)-CK; result sentences name it Fv4-IgG1-F21; also called Fv4-IgG1-F21; copies: 2 + 2
binding result [13]: binds

B6: VH3/L(WT)-IgG1-F157 (antibody)
heavy: B3 heavy
light: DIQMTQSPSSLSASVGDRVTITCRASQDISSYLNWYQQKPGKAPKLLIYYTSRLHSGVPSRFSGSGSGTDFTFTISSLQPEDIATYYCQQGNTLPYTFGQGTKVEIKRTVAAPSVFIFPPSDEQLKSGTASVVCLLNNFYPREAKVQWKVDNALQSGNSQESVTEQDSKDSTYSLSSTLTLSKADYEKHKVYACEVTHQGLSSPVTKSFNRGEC
notes: also called Fv4-IgG1-F157 (name in result sentence); copies: 2 + 2
binding result [13]: binds

B7: Fv4-IgG1-F20 (antibody)
heavy: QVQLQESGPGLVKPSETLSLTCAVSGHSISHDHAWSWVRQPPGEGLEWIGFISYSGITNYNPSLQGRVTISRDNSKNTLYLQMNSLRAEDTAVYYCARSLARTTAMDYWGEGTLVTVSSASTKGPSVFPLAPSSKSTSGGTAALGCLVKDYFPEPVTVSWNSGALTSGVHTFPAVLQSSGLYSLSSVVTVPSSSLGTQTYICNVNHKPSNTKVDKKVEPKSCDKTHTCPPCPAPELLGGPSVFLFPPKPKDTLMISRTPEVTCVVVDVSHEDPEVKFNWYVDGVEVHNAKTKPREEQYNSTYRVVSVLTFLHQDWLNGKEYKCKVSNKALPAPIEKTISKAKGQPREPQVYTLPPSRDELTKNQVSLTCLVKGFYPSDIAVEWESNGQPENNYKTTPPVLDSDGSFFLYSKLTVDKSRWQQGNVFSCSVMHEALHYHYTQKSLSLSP
light: B3 light
notes: VH3-IgG1-F20 with VL3-CK; copies: 2 + 2
binding result [1]: binds
binding result [2]: binds
binding result [3]: binds

B8: IgG1-v3 (IL6R-G1d_v3/IL6R-L) (antibody)
heavy: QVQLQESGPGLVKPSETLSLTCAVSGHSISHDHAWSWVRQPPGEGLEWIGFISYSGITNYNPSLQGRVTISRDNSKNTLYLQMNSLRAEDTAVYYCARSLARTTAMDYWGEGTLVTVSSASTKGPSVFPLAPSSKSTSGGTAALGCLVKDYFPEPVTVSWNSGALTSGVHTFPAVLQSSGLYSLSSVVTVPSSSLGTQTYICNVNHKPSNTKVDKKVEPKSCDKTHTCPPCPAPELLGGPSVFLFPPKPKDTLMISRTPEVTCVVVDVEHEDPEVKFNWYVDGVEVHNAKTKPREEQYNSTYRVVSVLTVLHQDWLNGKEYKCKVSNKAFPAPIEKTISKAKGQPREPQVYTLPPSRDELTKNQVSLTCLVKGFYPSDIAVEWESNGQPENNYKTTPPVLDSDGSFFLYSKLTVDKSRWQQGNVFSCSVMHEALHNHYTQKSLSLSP
light: DIQMTQSPSSLSASVGDRVTITCRASQDISSYLNWYQQKPGKAPKLLIYYTSRLHSGVPSRFSGSGSGTDFTFTISSLQPEDIATYYCQQGNTLPYTFGQGTKVEIK
notes: IL6R-G1d with S267E/L328F (EU), known mutation used for comparison; copies: 2 + 2
relative KD (KD of IgG1 divided by KD of the variant) [14]: 0.51 fold
relative KD (KD of IgG1 divided by KD of the variant) [15]: 408 fold
relative KD (KD of IgG1 divided by KD of the variant) [16]: 522 fold

B9: FH4-IgG1 (antibody, V domains shown)
VH: QVQLVQSGAEVKKPGSSVKVSCKASGGTFSSYAISWVRQAPGQGLEWMGGIIPIFGTANYAQKFQGRVTITADESTSTAYMELSSLRSEDTAVYYCARERDYYDSSGYYDAFDIWGQGTMVTVSS
VL: ETTVTQSPSFLSASVGDRVTITCITTTDIDDDMNWFQQEPGKAPKLLISEGNILRPGVPSRFSSSGYGTDFTLTISKLQPEDFATYYCLQSDNLPFTFGQGTKLEIKR
notes: Ca-dependent anti-human IL-6 receptor antibody from a naive human phage library
Ca-dependence of binding (fold) [4]: ≥ 100 fold
